experiment: label from the status in PepcDB records
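Also: failed if final PepcDB status was selected cloned or expressed and not failed if soluble or beyond.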

Question: With “MSRTEGSHEAEQDLTMIVGTYTSGDSKGLYSFRFNEENGTATALSEAEVENPSYLVPSADGKFIYAVSEFSNEQAAANAFAFNKEEGTFRLLNTQKTGGEDPCYIITNGSNVVTANYSGGSISVFPIDKDGSLLPASEVVKFKGSGADKERQEKPHLHCVRITPDGKYLFADDLGTDQIHKFIVNPNAKADNEDVFLKEGSPASYKVEAGSGPRHLTFAPNGSYAYLINELSGTVIAFEYNDGELKEIQTIAADTVGAKGSGDIHISPDGKFLYASNRLKADGLAIFSIHPENGMLTKVGYQLTGIHPRNFIITPNGKYLLVACRDSNVIQVYERDTDTGLLTDIRKDIKVDKPVCIKFVPLEHHHHHH” as the sequence, how does the protein production read?
Answer: Its protein production is “not failed”.

Question: With “MSRTMAEVNRLLKKTAGLINKDTESPFQGEFRVGVDLGTADIQTIVLDADGNPLAGFMDWANVVRDGVVVDFFGASQIVREQVRRASAKLGIQIEQVTTSFPPGTDSRISTNVIEAAGLEVAGVIDEPSSVAQLLQLDHAAVVDIGGGTTGTAIIEEGRVVRSMDDATGGRHITLTLAGHFGLPYEEAEEMKRTSKDLALCRLAAPVIAKMADIVHGHIAGHKVPAIYLTGGSCALPGFLEVFAAEFPGIEIVMPSHPLYLTPLAIATYSDVLQTREQRVGLEHHHHHH” as the sequence, how does the protein production read?
Answer: Its protein production is “failed”.

Question: For “MSRVAGLSSKKSRWLLQSLLDQQRHSLGTGFESANILLSPKYHLKDKDLRKIHKAARDGDAARVQQLLLGKHCVNDKDKKKRTALHIACAYGHPKVVMALVEGKCEVNATDSEECTSLVKAVQCQEEECATILLENNADPNIVDAQGNSALHYAVYYKNTSLAAKLLDHEVNIEATNKDGFTPFLLAVSENKLKIAKFLLMKNASIHAADNQKRTALMHAVSHDSTNLVRFVLEQGVDLFVKDAFGLTAIDYAADFKYNSKDQQSQELENMEKKYTAAQDSLEYTAAQDSLEHTAAQDSLEHTAAQDGLEYTAAQDSLEHTAAQDSLEHTAAQDSLEHTAAQDSLEYTAAQDSLEYTAAQDSLEYTAAQDSLEHTAAQDSLEYTAAQDSLEHTAAQDSLECTAASNSSRSHALITHVHLSAEPDGGVTSVEEPRRLDDRGDDQPQEAVTAPRTREKEQDMCTVVTGKEDEDESSWDSETNPPSPWGAPEALCAAALDHGDIGSPLTRENGHPRARQSPSVDSEEQDGGSGLNIKEEKTRDHEEWSGDFLMDRTSKESEPAAGDLLQVKDSWSLNDTDPNKGRSGGDPIEESRNATDLNHCKAVYIPPSESANSEIWKGMSSAKARLDNASKGPTVTRF”, which protein production is on record?
Answer: Its protein production is “failed”.

Question: For “MSRVPGWLGRLGAGLTRASERLEQRREEARRDDADDGPGPVSDHERRPLDDTAEDSAVEHLAAHRPVALAHRPDPAQAVPWGVRVAAEAGWRLLVLAGTVWVLMRVISAVQLVVLAFVAALLITALLQPAVAWLRRHGVPRGPATALTAILGFVVMGLIGWFVTWQVMENIDNLSDQVQDGIDELRNWLLNSPFHVTDKQINEIAKNLRDAVGANTDQITSAGLEGVTVVVEALTGILLAAFSTLFLLYDGKRIWQWSLKLVPAAARPGVAGAGPRAWRTLTAYVRGTVIVALIDAIFIGLGIYFLDVPMAVPLAVFIFLFAFIPLVGAVVSGALAVVVALVTQGVFAAVMTLVVVLAVQQIEGHILQPFILGRAVRVHPLAVVLSVAAGGMVAGIGGAVVAVPLVAVTNTVVGYLRAYSREAALRRTPRPHGATSTDAAPAVDRVPGPPKPPAPPADGPPSDAP”, which protein production is on record?
Answer: Its protein production is “failed”.

Question: Which protein production does the source give for “MSRYDITGSEGEYEPGSDNKVLRNLPGITDPEEMNIVETDLLEDLYLQVFDNFPEELTFETLCQWHRAWLGNVYSWAGQSRTVDMSKPNIRFASPVQIPKLAEKFEARYLPRFAELPEMTDEELVAFLAEVHVEFILIHPFREGNGRISRLLLDVMAAKAGAEPLDYSLWDEHKDFYFKAIQAGRDGDYQHVERLIRDVLEAQQ” here?
Answer: Its protein production is “failed”.

Question: Which protein production does the source give for “MSSAIERKSLDPSEEPVDEVLQIPPSLLTCGGCQQNIGDRYFLKAIDQYWHEDCLSCDLCGCRLGEVGRRLYYKLGRKLCRRDYLRLFGQDGLCASCDKRIRAYEMTMRVKDKVYHLECFKCAACQKHFCVGDRYLLINSDIVCEQDIYEWTKINGMI” here?
Answer: The protein production was “failed”.

Question: For “MSSALLRVAYAYDRLRAHPPEVAGQIATAMASAVHPKGEEPVFLELGVGTGRIALPLIARGYRYIALDADAAMLEVFRQKIAGVDRKVQVVQADARAIPLPDESVHGVIVVHLWHLVPDWPKVLAEAIRVLKPGGALLEGWDQAEESPEWTLQERWRAFAAEEGFPVERGLHAKRLKEVEEALRCLGLKPRTREVARWREERTPREALEALSERLYSFTQGLPEPVHARVMERLWAWAEAELGDLDRPFPVEKRFLLRVSRLG”, which protein production is on record?
Answer: Its protein production is “failed”.

Question: For “MSSASSEAQRLARLALLQVVDTAAEPFFDALAAAAQAIAGTPIALVSLVDERRQWWKANIGLPGVSETPRELAFCTYTIQGDAVMEVRDAPADPRFHDNALVTDAPGIRYYAGAPIVLPDGLRMGTVCVIDQRPRALEPAQLQALQQLAKVAAEGLEQRRVMLEREAANAQLQQRLRESEAFLERTGRVAGVGGWEVDVASGTLIWSDQTCRLHDVPPGYRPSLTEAIGFYPLEARAVITEAVDACVRDGTSWDLELPLTSATGRRLWVHSTGSVEHVDGRKRLIGAVQDVTDRHRAVDALAASERKFRKMFQYSLGLICTHDMHGRLVSINPAAARSLGRSVEQMEGRSLVEFVRPERHAALRGYLSRMVLDGQDSGVIELVAGDGSLRHWQYHNVLDVESDATVVLAHAQDITNQYRQEKQLLEWSFTDPLTNCYNRRFLDELDKRDPAVRWGCIVVDLDKFKLVNDTHGHQRGDEVLVQMAWFLNQPLRTQDRLVRLGGDEFLVLLHQASQTQLDALKRDYMGASEDAPIRFTLGTALRQDGEALAAVVDRADHSLYSLRRARRGTGTSDQR”, which protein production is on record?
Answer: The protein production was “failed”.

Question: Which protein production does the source give for “MSSATGRWRESPPTAVKNEEDNGRCPRELRVQSEAVLAGRYRLEERLGRGGMGEVWRAFDPHLEREVAVKLILSGDNDGVLIRRFQREARISANIQHPNITAVHDFGHHEGQLFLVMELLRGRDLGAVLADHPQGMPLDLVVSVAVQAADALRAAHTHRVVHRDLKPGNLFLLDTGHVKVCDFGIAHIADATSQLTAVGTALGTPAFMPPEQWKGEEVDSRSDVYALGGVMHTMLTGRIPFTGPLPALLAQHLTQDPPPIREFRPDVPLELADLVARMMAKDPAARPDSHELGELIYRAAAPEASGSPAFFSPQIAPQALPTAPPTAAPVPPQPSHATGYAAPSQWMPAAPQPHPTAHPPAEGDPQTMFTLGLRHREQGDIAGAESWYRKAAEAGHLDSMFNLALLSRERGNLVEAESWYRRAAEVGDVDAMVNLGDLLKERGESAEAELWHRRAAEAGHIASMHTLGNLLYSKGDTAEAETWWRRAAEAGNIRAMGVLGNLLEQRGDTFGAEQWYRRAAEAGNLDAMVNLGVLLENRHDTFGAEQWYRRAADAGDIDAMVNLGNLLHGRGDMGSAQYWWQRAAQTGNTRALNHLNQMG” here?
Answer: Its protein production is “failed”.

Question: With “MSSATGSKIVVTGATGNVGTSVVRLLSEDPEVGTVLGLARRIPDWSPAKTEWAAVDLASEQSDLTSHFADADAVVHLAWAFQPTHDPATTWRTNVLGSIRVFEAVAAAGVPALVHASSVGAYSPGPKNHAVDESWPTHGWPDAAYCREKAYLERALDTFERDHPGIRVVRMRPAFLFKRESASEQRRIFGGRFLPGPAARPELLPFLPDVPGLRVQALHTDDAARAYRLAVRSADARGAFNLAAEPPVDAELLGELLGVRPVRLPRAAARSAIAAAWGMRLLPASPHLFDAVLRLPVMDCTRARVELGWGATRTATEVLEEFLRGLRQGAGADTEPMRGRKVG” as the sequence, how does the protein production read?
Answer: Its protein production is “failed”.

Question: For “MSSDAISLRAAGPGDLPGLLELYQVLNPSDPELTTQEAGAVFAAMLAQPGLTIFVATENGKPVATATLLIVPNLTRAARPYAFIENVVTLEARRGRGYGRTVVRHAIETAFGANCYKVMLLTGRHDPAVHAFYESCGFVQNKTGFQIRQD”, which protein production is on record?
Answer: Its protein production is “not failed”.

Question: With “MSSDCLNVSYPATGCQKLFEVVDEHKLRVFYEKRMGQVVEADILGDEWKGYQLRIAGGNDKQGFPMKQGVLTHGRVRLLLKKGHSCYRPRRTGERKRKSVRGCIVDANMSVLALVVLKKGEKDIPGLTDTTIPRRLGPKRASKIRKLYNLSKEDDVRRFVVRRPLPAKDNKKATSKAPKIQRLITPVVLQRKHRRIALKKKRQIASKEASADYAKLLVQRKKESKAKREEAKRRRSASIRESKSSVSSDKK” as the sequence, how does the protein production read?
Answer: The protein production was “failed”.

Question: With “MSSDKTLNVKATGIIALAVMCSRVLGLIREVLFNALFGSASMGIFLIAFRAPNLLRDLFAEGALSVSFITVFSKKIETEGEKSAWQLASKMLTLTSVFMSILCLFGIIFAKYLIFILAPGFSVKDAETTIFLTQLMFPFILLVSLAAIVMGMLNSKNVFGMPALASSFFNIGSILGGALCGWFIDPSFGERALIGLAIGTVIGGLLQLGVQFPSLRKVGFYFKPNFHWYDSGVRNTLILTIPAVIAASAVQINVLINSGFASYLGKEAVTWLNSAFRLMQFPLGVLGVAIATITLPVVSRLAATNNHSQFGSTLARAIRLAVFLTMPAAVGLWFFATPIISLIYEHGKFHASDSLQTAYALQFYALGLVAYSCIKVLSPAFYAIDKKWTPMIVSFATIILNIILNYFLIFKLSMGHRGLALSTTVSATVNFLVLYVLMTRLHNLQNRYLFNTILRCVLASAILGFMCQSIFAYGADFLYHPSFWIRAVSLAISISFAVLVYLSMCVILRVDEAKSIFMIIRHRLGFPIKFKSKQV” as the sequence, how does the protein production read?
Answer: The protein production was “failed”.

Question: Which protein production does the source give for “MSSDVQKGDNLETPGARDLLLQTASNIMREGDVVDISLSELSLRSGLNSALVKYYFGNKAGLLKALLDRDMENIVKSVDALLAKDDMSPEAKLRRHISKCIDTYYDYPYLNRLLMRLVRDSDEAEAKRIADQYLLPLHRAYNRFIGEGVKAGVFRPINPQLFYFTVTGAADRFFSARLVLKHCFDQDTLTEQLRDSYREHTVDFIMAGILAH” here?
Answer: The protein production was “not failed”.

Question: With “MSSEKVMSESSNASTKEGQLPRSSGVSWSLIMGAAFLMATSAVGPGFLTQTTVFTQTLGASFAFVILVSIILDIGAQLNIWRVIVVSKKRAQDIANDLLPGLGYAIAGTVALGGLAFNIGNIGGAGMGMNVLFPSISPVAGASISAVIAVAIFMLKDAAKVMDRFTILMGAALIVMTLYVLFSTSPPIGEALYRSVWPEKLNVLAIITLVGGTVGGYITFAGAHRLIDAGVTGKEALPQVNRGSVSAISVASIVRVILFLAALGVISTGVTLDPSNPPASMFQHAAGNIGYKIFGLVLWAAAITSVIGAAYTSVSFLKTLHPMIDLHSRKFIIGFIVISTFIFCFIGKPVVLLIVAGALNGFILPVTLGIMLIAAKKAQIVGDYKHPVWMSVFGWLITAMMAAMSVYTLYMLLI” as the sequence, how does the protein production read?
Answer: Its protein production is “failed”.

Question: With “MSSERIVELIKEIYLDFRKGNFKEALVKSEEAHSLDFDNIEILTALKSSVYWNGQVESLDRIGQDYEKAEFLIREWNNFAGRYLKKMGCNFLQGRNSIKYFVFQTCLYIYKNIYKMHPENLDLLIKIAKSYKGMGNYERAINVFLQILGDFKDNSDVVAELADSYALVDEIKEAKVLFREAFFINPQKIDIYSLESDMILRLIDLIKSDRNISDDLIKEWIPVYGSLNGVFNIKRELRPIELGQLKQSVYSLRNELKEKSYRSINESILLPRLINKYFWLIDHYVRIKEDRARIDEILLYIKEIDLGIYQQYVN” as the sequence, how does the protein production read?
Answer: The protein production was “failed”.

Question: With “MSSERQLAGRIVVPGEPLPEEVEASPPYVIDYKGVKRATVVGLLREKGDGGGRAFVKLKEIYVPQAGDVVIGLIQSVGIMNWFVDINSPYVAVLSVQDFLGRPFNPAVDDMQSLLKVGDYIKAKVVAFDKTRSPLLTVQGEGLGRIVRGKIVEISPAKVPRVIGRKMSMLKTLEEKTECKIFVARNGRIHLECPNEDLEAIAVMAIKIIDEEAYTSGLTKRIIKFIEEERRIREV” as the sequence, how does the protein production read?
Answer: Its protein production is “not failed”.

Question: With “MSSFAELLQQGASQAWLYFPSAILLGALHGLEPGHSKTMMAAFIVAIRGTVKQAVLLGLASTLSHTAVVWLVAMAGMYLGQNLNAETTEPYFQLASAAIIITIALWMLWRTWRGEQMWRFEEGDDLQHDYHHHDEMQRIDTGHGRIELSIFEEGVPPRWRLNILTGHAWSAAEMSLLTTRPDGLAQQFRFVDRGDYLESVDEIPEPHEFTARLSLGHAGHSHDYDLEFHEHGHGHGHDHAELEGLELSLEGYQDAHERAHANDIRKRFSNRNVTTGQIILFGLTGGLIPCPAAITVLLLCLQVKEVALGAVLVLCFSIGLAITLVTVGAAAAIGARQASNRWPWLGAVARRAPYLSSLLIIGVGIYVGVHGWIGLNA” as the sequence, how does the protein production read?
Answer: Its protein production is “failed”.

Reference: a protein production outcome set (Wang et al. 2014)
